Entries after “also recorded” stand apart in the source; their conditions may differ.
Tests used:
JAML binding with CAR = target: T1, JAML binding with CAR (Homo sapiens, UniProt Q86YT9); test: CAR binding assay (ELISA, CAR-GST on immobilized sJAML-His); conditions: CAR-GST 10 μg/ml on immobilized sJAML-His preincubated with antibody; FIG. 1C
T1 construct: soluble JAMLD1D2 was truncated and tagged after residue Leucine259; made in house; host or cells: HEK293T (sJAML-His)
T1 sequence (Q86YT9 20-259): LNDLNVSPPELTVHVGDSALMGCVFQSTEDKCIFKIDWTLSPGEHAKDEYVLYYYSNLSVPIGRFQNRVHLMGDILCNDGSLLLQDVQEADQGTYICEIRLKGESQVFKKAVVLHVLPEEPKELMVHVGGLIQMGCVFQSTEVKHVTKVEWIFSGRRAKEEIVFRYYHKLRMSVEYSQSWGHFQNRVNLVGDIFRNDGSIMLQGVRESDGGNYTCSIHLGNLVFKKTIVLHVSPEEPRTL
Protocol: FIG. 1C. CAR binding assay: sJAML-His was coated in Immulon II microtiter microtiter wells overnight, at 4° C. Microtiter wells were washed and blocked and 100 μl antibody solutions were added to wells for 1 hour RT. After washing, CAR-GST was added at 10 μg/ml for 1 hour RT, washed and the assay was developed with HRP conjugated goat anti GST followed by ABTS and OD measurement at 405 nm.
Because certain antibodies recognize the membrane distal domain of JAML, their ability to inhibit binding to CAR was tested. By ELISA, the levels of soluble CAR-GST bound to immobilized sJAML-His preincubated with anti JAML antibodies was measured. […] Thus, these antibodies recognize three different epitopes on JAML and that both DW100 and DW55 bind epitopes close to the JAML binding site. Using a cell aggregation assay, the possibility that DW100 could inhibit the binding of JAML to CAR expressed on the surface of cells was examined. […] This again confirms previously described JAML binding to CAR, as well as the specificity of DW100 (blocking) and DW216 (non-blocking) Abs to JAML.

[1] = target: T2, CHO-JAML-His and CHO JAML-6xMyc (Homo sapiens, UniProt Q86YT9); test: FACS staining of stably transfected CHO-JAML cell lines; assay type: binding; conditions: FIG. 1A
T2 construct: 6xMyc (cell line CHO JAML-6xMyc); expressed in transfected cells
T2 sequence (Q86YT9 20-394): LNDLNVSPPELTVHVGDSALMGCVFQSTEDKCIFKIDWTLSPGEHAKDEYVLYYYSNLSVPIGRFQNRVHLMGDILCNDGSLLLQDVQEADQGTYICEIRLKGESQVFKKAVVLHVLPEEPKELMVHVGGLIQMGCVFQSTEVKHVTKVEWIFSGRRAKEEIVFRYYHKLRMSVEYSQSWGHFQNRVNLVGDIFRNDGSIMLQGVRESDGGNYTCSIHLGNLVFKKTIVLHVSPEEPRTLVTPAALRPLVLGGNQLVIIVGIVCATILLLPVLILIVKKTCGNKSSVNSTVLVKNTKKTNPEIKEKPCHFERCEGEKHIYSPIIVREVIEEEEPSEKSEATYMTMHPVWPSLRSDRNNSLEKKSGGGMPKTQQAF
From the text: BALB/c mice were immunized with recombinant soluble fragment of JAML.D1D2 tagged with 10 His residues at the C-terminus (sJAML-His), generated in H293T cells and purified by Nickel chromatography. After the 4th boost, mice were given a final immunization and, 3 days later, spleen cells harvested and fused to the myeloma cell line P3U1. Hybridomas were selected in HAT medium and supernatants of clones were subjected to screening first to immobilized, soluble JAML and followed by staining of CHO-JAML stable transfectants. Three hybridomas were selected and antibodies were purified from ascites. FACS staining profiles of mAbs using two different, stably transfected CHO-JAML cell lines, CHO-JAML-His and CHO JAML-6xMyc, both membrane bound and tagged at the C-terminus with either 10-His or 6xMyc. Control antibody is 9E10 anti Myc.
These hybridomas were further tested for reactivity against tagged, full-length JAML expressed on the surface of cultured cells. CHO-JAML-6XMyc transfectants were aliquoted and pelleted into round bottom 96 well plates. 100 μl hybridoma supernatants were added for 1 hr at 4° C. Cells were washed and positive wells were identified by FACS analysis using Goat anti Mouse-AlexaFluor 488. Cells from positive wells were cloned by limiting dilution at one cell per well and expanded first in DMEM-10% FBS containing HAT then in medium containing HT (ATCC) and later DMEM, 10% FBS. The cloned cells of interest were sent to Harlan Laboratories (Indianapolis, Ind.) for production of ascites. Antibodies were purified from ascitic fluid using proteinA-Sepharose (GE Healthcare) followed by dialysis against PBS. Aliquots were frozen at −80° C. Ig subclass of each antibody was determined by using the IsoStrip Mouse Monoclonal Antibody Isotyping Kit (Roche Applied Science). […]
Cells suspensions of adherent cells were prepared by trypsinization with Trypsin-EDTA (Sigma). […] After final washes, cells were analyzed using FACS Calibur. […] All samples were stained for JAML (DW100 mAb) and CD11b/CD18 (CBRM 1/29), and only CD11b/CD18 positive cells (PMNs) were analyzed for JAML expression.

B1: DW100: monoclonal anti-human JAML antibody (IgG1,κ), hybridoma ATCC PTA-13051; VH SEQ ID NO:19, VL SEQ ID NO:22 (antibody, V domains shown)
VH: DVQLVESGAELVRPGASKLSCKALAYTFTDYEMHWVKQTPVHGLEWIGIIHPGSGGTVYNQKFKGKATLTADKSSSTAYMELSSLTSEDSTVYYCTRRRYYGSSYNWYFDVWGAGN
VL: VLTQSPASLAASVGETVTITCRASENIYYSLAWYQQKQGKSPQLLIYNANSLEDGVPSRFSGSGSGTQYSLKINSMQPEDTATYFCEQTYDVPLTFGAGTKLEL
JAML binding with CAR
  inhibition of CAR binding to JAML: inhibit human JAML binding with CAR; also recorded: completely inhibited JAML/CAR interactions; also recorded: completely inhibited binding of JAML to CAR
[1]
  FACS staining of CHO-JAML transfectant lines: stained both transfectant lines equally well
